Here are results for three substances from US20170267780A1.

Assay [1] addresses Cyno FcRn (cynomolgus monkey) (UniProt Q8SPV9). Nature of the assay: SPR (ProteOn), IgG immobilised, cyno FcRn, pH 6.0.
The target in a further assay is Fcγ IIa (UniProt P12318). Nature of the assay: effector binding, values nM, method not stated.
Another assay has as its target Fcγ RIa (UniProt P12314). The assay can be described thus: effector binding, values nM, method not stated.
A further assay has as its target C1q (UniProt P02745). Nature of the assay: effector binding, values nM, method not stated.
The target of the next assay is Fcγ IIIa (158 F) (UniProt P08637). The assay can be described thus: effector binding, values nM, method not stated.
In assay [2] the target is Recombinant human FcRn (human) (UniProt P55899). The assay can be described thus: SPR (ProteOn), IgG immobilised, pH 6.0.
For assay [3] the target is unchanged. Nature of the assay: SPR (ProteOn), IgG immobilised, pH 7.4.
Assay [4] deals with Cyno FcRn (cynomolgus monkey) (UniProt Q8SPV9). The assay can be described thus: SPR (ProteOn), IgG immobilised, cyno FcRn, pH 7.4.
A further assay concerns the target Fcγ IIb (UniProt P31994). Nature of the assay: effector binding, values nM, method not stated.
A further assay has as its target Fcγ IIIa (158 V) (UniProt P08637). Nature of the assay: effector binding, values nM, method not stated.

Sequence of Cyno FcRn (cynomolgus monkey) (Q8SPV9 24-297 limits assumed, chain 1 of 2): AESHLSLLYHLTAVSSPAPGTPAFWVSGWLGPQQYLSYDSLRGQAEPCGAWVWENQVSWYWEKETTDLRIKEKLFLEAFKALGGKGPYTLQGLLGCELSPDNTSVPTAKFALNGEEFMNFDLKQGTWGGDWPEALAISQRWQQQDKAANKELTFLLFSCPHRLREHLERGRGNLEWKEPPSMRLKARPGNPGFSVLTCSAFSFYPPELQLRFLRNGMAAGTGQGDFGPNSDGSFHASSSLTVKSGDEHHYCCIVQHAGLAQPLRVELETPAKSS
Sequence of Cyno FcRn (cynomolgus monkey) (Q8SPW0 21-119 limits assumed, chain 2 of 2, further chain): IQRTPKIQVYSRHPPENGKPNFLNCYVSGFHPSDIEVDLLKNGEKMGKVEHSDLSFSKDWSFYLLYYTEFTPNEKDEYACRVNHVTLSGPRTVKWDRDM
Sequence of Recombinant human FcRn (human) (P55899 24-297 limits assumed, chain 1 of 2): as the sequence (Q8SPV9 24-297 limits assumed, chain 1 of 2) above, with D39N, Q44E, S99G, G189S, N190S, M217L, T269S counted along it
Sequence of Recombinant human FcRn (human) (b2m, as listed by the source limits assumed, chain 2 of 2): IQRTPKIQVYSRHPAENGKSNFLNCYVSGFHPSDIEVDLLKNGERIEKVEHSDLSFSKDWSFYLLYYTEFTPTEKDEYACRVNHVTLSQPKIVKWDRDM
Sequence of Fcγ IIIa (158 F) (P08637 17-208 limits assumed): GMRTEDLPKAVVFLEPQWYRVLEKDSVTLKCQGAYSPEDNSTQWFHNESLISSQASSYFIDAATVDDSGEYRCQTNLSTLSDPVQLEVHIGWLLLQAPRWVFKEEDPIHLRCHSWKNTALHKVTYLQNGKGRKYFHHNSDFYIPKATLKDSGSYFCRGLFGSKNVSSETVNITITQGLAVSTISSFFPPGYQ
Sequence of C1q (P02745 23-245, chain 1 of 3): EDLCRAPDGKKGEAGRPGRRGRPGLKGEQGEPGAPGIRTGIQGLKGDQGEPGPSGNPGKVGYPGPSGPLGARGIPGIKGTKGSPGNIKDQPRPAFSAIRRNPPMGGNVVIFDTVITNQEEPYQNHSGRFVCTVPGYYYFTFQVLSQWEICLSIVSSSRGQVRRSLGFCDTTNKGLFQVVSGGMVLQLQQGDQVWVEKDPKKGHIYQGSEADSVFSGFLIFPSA
Sequence of C1q (P02746 28-253, chain 2 of 3, further chain): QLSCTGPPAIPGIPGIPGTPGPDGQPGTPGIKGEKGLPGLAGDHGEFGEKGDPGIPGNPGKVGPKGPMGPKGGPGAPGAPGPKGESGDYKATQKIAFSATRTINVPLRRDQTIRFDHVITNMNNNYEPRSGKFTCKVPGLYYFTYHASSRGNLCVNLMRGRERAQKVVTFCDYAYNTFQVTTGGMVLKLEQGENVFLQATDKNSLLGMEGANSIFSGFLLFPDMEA
Sequence of C1q (P02747 29-245, chain 3 of 3, further chain): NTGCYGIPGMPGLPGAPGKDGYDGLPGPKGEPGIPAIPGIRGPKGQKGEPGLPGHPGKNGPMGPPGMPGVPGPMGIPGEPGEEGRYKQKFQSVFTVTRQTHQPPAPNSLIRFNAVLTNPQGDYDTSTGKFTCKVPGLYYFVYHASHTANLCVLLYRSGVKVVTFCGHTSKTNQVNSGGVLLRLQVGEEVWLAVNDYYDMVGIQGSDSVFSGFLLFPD
Sequence of Fcγ IIIa (158 V) (P08637 17-208 F176V limits assumed): as the sequence (P08637 17-208 limits assumed) above, with F160V counted along it
Sequence of Fcγ IIa (P12318 34-217 limits assumed): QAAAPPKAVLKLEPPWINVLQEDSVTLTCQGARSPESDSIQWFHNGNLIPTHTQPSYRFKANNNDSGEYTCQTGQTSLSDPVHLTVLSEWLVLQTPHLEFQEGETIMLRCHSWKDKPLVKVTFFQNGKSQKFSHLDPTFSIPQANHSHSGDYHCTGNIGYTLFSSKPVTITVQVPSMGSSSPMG
Sequence of Fcγ IIb (P31994 43-217 limits assumed): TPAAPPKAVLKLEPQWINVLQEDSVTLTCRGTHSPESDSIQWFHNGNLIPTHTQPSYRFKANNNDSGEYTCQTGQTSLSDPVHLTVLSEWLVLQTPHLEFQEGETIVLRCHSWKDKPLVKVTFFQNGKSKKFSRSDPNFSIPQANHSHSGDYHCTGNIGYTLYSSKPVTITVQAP
Sequence of Fcγ RIa (P12314 16-288 limits assumed): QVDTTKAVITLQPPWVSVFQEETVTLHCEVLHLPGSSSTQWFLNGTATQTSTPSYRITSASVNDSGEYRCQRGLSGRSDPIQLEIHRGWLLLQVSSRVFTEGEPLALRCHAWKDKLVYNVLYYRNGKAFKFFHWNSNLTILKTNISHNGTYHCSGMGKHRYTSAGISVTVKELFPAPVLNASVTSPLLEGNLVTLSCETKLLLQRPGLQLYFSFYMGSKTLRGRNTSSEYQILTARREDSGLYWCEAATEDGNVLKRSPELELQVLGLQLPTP

Broadly, the Kd is a measure of binding affinity in units of concentration. With Wildtype Motavizumab (antibody), the Kd in [1] was 1920 nM; in the assay with Fcγ IIa, 506 nM; in the assay with Fcγ RIa it was 45.8 nM; with C1q, 328 nM; in the assay with Fcγ IIIa (158 F), 4140 nM.

Regarding HB20.3 (anti-CD20) IgG1 YTE (antibody), the Kd in assay [2] came out at 215 nM; in assay [3], 5800 nM.

Turning to Motavizumab YTE (antibody), the Kd in [1] amounted to 275 nM; in assay [2], 314 nM; in [4] it was 8000 nM; with C1q, 482 nM; with Fcγ IIb, 1950 nM; with Fcγ IIIa (158 F), 6060 nM. Also, the dissociation constant (Kd) in the assay with Fcγ IIIa (158 V) was determined as 245 nM.
